According to article PMC4156547:

Assays:
[1] = molecular target: HIV-1 gp41^27–194 (HIV-1 (HXB2)); experiment: AUC
[2] = molecular target: gp41^27–154 (HIV ectodomain) (HIV-1); experiment: AUC

Work on HIV-1 gp41^27–194 (domain or fragment) yielded a stoichiometry N [1] of 3.
With “gp41^27–154 (HIV ectodomain) (domain or fragment)” the stoichiometry N [2] was 3.
